Data: US20210395731, “METHOD AND COMPOSITION FOR INHIBITING GROWTH OF BACTERIUM” (City University of Hong Kong, published 2021)

Columns and labels:
Hfq [1] = molecular target: T1, Hfq (Pseudomonas aeruginosa, UniProt Q9HUM0 Q9HUM0:1-82); experiment: EMSA; apparent Kd, Hill fit; two cooperative binding sites; 50 mM Tris, 250 mM NH4Cl pH 7.5, tRNA, 37 C; exact value in figure only; settings: tags: His tag (pET28a, TALON purified, anti-His6 used), chain copies: 6 inferred, label: 32P-UTP internal
Hfq [2] = molecular target: T1, Hfq; experiment: EMSA; apparent Kd, Hill fit; 50 mM Tris, 250 mM NH4Cl pH 7.5, tRNA, 37 C; exact value in figure only; settings: tags: His tag (pET28a, TALON purified, anti-His6 used); chain copies: 6 inferred; label: 32P-UTP internal; I-shaped terminator

T1 sequence (Q9HUM0 whole entry, one chain of several): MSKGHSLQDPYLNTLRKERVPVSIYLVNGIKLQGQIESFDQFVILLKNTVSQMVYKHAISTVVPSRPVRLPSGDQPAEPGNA

B1: IGR2780 sRNA (ssRNA)
RNA: GCUGUACAUCCCUGGAUCCUUUCCCGGCCUGCUCCACGCGGCCGGGAUUUUUUUUGCCC
B1 was tested, and the Kd (Hfq [1]; terminator stem-loop with poly(U) stretch) was < 150 nM.

B2: AS2779 sRNA (ssRNA)
RNA: GCGAACCCCAAGGGUAUUUCCCGACCAGCUCCCCCGCGGUCGGGAUUUUUUUUUGCCUGUCGCUCAGCGCUUCGGGUCGAAGGGCGAAUAGCCCCGCCGGCGCAGGCUCGCCAGGGGCGCGAACAGCGG
With B2 the Kd (Hfq [1]; I-shaped terminator, canonical terminator in the middle) was < 150 nM.

B3: AS1974 sRNA (ssRNA)
RNA: GAAUGUUCUUAAAUAUCCUCAAGCGGUUGCGCGGCCAGGCACUGGUCGAGGAGAUGCACCAGGGUGGCCUGUUCCACCGGGGUGAGCGGGGCAAACAACUCGUCAUGCACGCGUGACAUGAUGGCCUC
B3 was tested, and the Kd (Hfq [2]) was < 150 nM.
